Laboratory results: PMC4824073, “Ribonucleoprotein particles of bacterial small non-coding RNA IsrA (IS61 or McaS) and its interaction with RNA polymerase core may link transcription to mRNA fate”

How the values were obtained:
RNAP core enzyme;sigma70 = RNAP core enzyme;sigma70 (Escherichia coli?;Escherichia coli?, UniProt P0A7Z4;P0A8V2;P0A8T7;P00579 1-329;1-1342;1-1407;1-613, |); test: EMSA; heparin added after complex formation (heparin-resistant); EMSA (Figs 3B, 4): 1x buffer 15 mM Tris-HCl pH 8, 100 mM KCl, 1 mM MgCl2, 1 mM DTT, 1 ug yeast RNA, 37 C 10-20 min, then heparin on ice; Fig 3A as in ref 29 without yeast RNA; pull-down: 10 mM Tris-HCl pH 7.8, 200 mM KCl, 1 mM MgCl2, 5% glycerol, 1 mM DTT, 4 C, heparin 100 ug/ml wash; settings: protein: native;recombinant; tags: ;; chain copies: 2;1;1;1; label: 32P; three stem-loops
RNAP core enzyme = RNAP core enzyme (UniProt P0A7Z4;P0A8V2;P0A8T7 1-329;1-1342;1-1407); test: as above; settings: protein: native; chain copies: 2;1;1; label: 32P; three stem-loops
Chain of RNAP core enzyme (P0A7Z4 whole entry, chain 1 of 3): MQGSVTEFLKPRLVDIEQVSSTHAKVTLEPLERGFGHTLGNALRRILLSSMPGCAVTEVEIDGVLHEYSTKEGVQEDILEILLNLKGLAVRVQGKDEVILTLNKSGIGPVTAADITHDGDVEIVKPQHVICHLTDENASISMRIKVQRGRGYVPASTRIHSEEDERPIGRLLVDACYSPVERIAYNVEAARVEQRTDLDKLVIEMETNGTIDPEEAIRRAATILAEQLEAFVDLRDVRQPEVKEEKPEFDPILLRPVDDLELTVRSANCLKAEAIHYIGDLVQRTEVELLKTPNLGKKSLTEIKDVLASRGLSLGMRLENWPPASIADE
Chain of RNAP core enzyme (P0A8V2 whole entry, chain 2 of 3): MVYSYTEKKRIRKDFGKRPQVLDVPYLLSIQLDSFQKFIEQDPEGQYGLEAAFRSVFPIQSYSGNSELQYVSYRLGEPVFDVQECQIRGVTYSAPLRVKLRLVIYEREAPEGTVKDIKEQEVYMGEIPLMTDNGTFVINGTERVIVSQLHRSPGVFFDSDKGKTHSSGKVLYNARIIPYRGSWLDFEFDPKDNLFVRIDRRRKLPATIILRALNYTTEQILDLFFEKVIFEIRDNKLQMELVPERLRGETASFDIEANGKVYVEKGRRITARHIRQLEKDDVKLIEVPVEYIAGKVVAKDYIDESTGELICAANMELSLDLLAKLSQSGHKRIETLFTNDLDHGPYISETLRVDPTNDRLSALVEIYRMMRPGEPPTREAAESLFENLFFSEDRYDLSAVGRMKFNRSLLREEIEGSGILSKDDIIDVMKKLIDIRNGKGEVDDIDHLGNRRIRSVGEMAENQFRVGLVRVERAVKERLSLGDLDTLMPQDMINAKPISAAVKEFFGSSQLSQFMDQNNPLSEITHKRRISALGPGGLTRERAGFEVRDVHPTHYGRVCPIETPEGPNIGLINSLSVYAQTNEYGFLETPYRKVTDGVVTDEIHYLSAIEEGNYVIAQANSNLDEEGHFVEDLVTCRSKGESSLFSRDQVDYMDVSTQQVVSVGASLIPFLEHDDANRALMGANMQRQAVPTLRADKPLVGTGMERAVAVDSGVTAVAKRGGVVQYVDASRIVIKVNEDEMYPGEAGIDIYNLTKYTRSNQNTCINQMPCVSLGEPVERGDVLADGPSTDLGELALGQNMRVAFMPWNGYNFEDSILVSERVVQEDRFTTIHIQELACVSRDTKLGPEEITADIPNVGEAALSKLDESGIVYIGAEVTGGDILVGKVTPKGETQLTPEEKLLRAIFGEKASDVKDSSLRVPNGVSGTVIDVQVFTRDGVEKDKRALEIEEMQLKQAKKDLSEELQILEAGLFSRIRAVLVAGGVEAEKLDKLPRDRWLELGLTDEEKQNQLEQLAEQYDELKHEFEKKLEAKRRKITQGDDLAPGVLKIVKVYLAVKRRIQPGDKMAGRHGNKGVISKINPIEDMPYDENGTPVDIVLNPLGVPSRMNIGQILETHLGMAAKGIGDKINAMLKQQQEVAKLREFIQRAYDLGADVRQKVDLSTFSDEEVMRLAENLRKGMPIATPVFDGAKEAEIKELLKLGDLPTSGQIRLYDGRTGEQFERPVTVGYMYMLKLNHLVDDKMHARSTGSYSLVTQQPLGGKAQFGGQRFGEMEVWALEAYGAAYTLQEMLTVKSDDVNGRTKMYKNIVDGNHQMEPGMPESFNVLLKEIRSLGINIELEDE
Chain of RNAP core enzyme (P0A8T7 whole entry, chain 3 of 3): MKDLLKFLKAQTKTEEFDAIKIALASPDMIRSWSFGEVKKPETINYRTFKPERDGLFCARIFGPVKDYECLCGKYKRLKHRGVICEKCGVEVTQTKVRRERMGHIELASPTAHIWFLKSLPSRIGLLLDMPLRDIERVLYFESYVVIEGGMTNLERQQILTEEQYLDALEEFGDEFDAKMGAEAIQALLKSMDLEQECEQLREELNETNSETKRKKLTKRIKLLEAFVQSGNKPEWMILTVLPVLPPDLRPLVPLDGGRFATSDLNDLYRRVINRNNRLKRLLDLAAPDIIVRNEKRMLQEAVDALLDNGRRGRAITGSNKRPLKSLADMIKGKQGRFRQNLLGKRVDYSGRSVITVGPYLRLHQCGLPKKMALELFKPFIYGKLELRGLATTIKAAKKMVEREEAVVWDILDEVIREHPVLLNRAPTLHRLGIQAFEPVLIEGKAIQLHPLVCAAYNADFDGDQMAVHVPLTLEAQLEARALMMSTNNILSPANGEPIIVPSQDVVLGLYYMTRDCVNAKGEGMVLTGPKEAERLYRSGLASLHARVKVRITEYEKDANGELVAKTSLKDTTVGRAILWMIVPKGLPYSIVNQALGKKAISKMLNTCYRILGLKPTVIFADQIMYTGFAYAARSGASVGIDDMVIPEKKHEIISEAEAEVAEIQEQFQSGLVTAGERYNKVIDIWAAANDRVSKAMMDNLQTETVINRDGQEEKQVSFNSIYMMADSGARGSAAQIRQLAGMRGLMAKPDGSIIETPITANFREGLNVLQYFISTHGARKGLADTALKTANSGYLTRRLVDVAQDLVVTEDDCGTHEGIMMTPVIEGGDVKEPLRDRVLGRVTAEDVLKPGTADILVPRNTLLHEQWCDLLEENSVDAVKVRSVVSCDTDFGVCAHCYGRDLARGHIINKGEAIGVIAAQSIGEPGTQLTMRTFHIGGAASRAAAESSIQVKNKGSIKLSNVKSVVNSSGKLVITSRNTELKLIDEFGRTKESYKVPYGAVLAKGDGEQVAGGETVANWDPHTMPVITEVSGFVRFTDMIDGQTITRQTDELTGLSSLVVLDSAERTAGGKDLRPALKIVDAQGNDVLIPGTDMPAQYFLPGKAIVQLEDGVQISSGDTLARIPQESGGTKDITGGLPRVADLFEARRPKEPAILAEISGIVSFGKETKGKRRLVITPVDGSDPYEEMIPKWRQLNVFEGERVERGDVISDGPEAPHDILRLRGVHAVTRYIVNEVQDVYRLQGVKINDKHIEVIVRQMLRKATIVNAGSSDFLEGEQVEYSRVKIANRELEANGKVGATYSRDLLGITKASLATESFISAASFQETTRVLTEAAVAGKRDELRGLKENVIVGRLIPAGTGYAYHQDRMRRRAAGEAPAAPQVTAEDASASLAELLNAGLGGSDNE

[1] = molecular target: RNAP (core or holo not stated) (UniProt P0A7Z4;P0A8V2;P0A8T7 1-329;1-1342;1-1407); test: competition; unlabeled IsrA 15-fold excess vs labeled IsrA; yeast RNA, heparin after; EMSA (Figs 3B, 4): 1x buffer 15 mM Tris-HCl pH 8, 100 mM KCl, 1 mM MgCl2, 1 mM DTT, 1 ug yeast RNA, 37 C 10-20 min, then heparin on ice; Fig 3A as in ref 29 without yeast RNA; pull-down: 10 mM Tris-HCl pH 7.8, 200 mM KCl, 1 mM MgCl2, 5% glycerol, 1 mM DTT, 4 C, heparin 100 ug/ml wash; settings: protein: native; chain copies: 2;1;1; label: 32P; three stem-loops

Measured: binding result

B1: IsrA (IS61, McaS) (structured_RNA)
RNA: ACCGGCGCAGAGGAGACAAUGCCGGAUUUAAGACGCGGAUGCACUGCUGUGUGUACUGUAGAGUCUGGCGGAUGUCGACAGACUCUAUUUUUUU
binds: RNAP core enzyme;sigma70 | RNAP core enzyme | [1]
